Laboratory results published in patent publication US20140087995A1 (published 2014).
Numbered stars: 1 amine (or outer) side, 2 acyl side, 3 side chain; on linkers, the order of the positions; unused ones are H or OH. Bridge positions count the residues as written; N and C are the ends. Side chains are listed from the residue outwards. Ends that are not written are not given here. * marks the point of attachment. C20 diacid = O=C(O)CCCCCCCCCCCCCCCCCCC(=O)*; γGlu = O=C(O)[C@H](CCC(=O)[*:2])N[*:1]; AEEA = NCCOCCOCC(=O)O

B1: N^-1-[(4S)-4-carboxy-4-(19-carboxynonadecanoylamino)butanoyl]-Gly[Arg1,Arg17,Pro21,Pro27,His35]-h-amylin (peptide)
peptide: {C20 diacid-γGlu}-GRCNTATCATQRLANFLRHSSPNFGAIPSSTNVGSHTY-NH2
modifications: disulfide 3-8
SMILES: CC[C@H](C)[C@H](NC(=O)[C@H](C)NC(=O)CNC(=O)[C@H](Cc1ccccc1)NC(=O)[C@H](CC(N)=O)NC(=O)[C@@H]1CCCN1C(=O)[C@H](CO)NC(=O)[C@H](CO)NC(=O)[C@H](Cc1c[nH]cn1)NC(=O)[C@H](CCCNC(=N)N)NC(=O)[C@H](CC(C)C)NC(=O)[C@H](Cc1ccccc1)NC(=O)[C@H](CC(N)=O)NC(=O)[C@H](C)NC(=O)[C@H](CC(C)C)NC(=O)[C@H](CCCNC(=N)N)NC(=O)[C@H](CCC(N)=O)NC(=O)[C@@H](NC(=O)[C@H](C)NC(=O)[C@@H]1CSSC[C@H](NC(=O)[C@H](CCCNC(=N)N)NC(=O)CNC(=O)CC[C@H](NC(=O)CCCCCCCCCCCCCCCCCCC(=O)O)C(=O)O)C(=O)N[C@@H](CC(N)=O)C(=O)N[C@@H]([C@@H](C)O)C(=O)N[C@@H](C)C(=O)N[C@@H]([C@@H](C)O)C(=O)N1)[C@@H](C)O)C(=O)N1CCC[C@H]1C(=O)N[C@@H](CO)C(=O)N[C@@H](CO)C(=O)N[C@H](C(=O)N[C@@H](CC(N)=O)C(=O)N[C@H](C(=O)NCC(=O)N[C@@H](CO)C(=O)N[C@@H](Cc1c[nH]cn1)C(=O)N[C@H](C(=O)N[C@@H](Cc1ccc(O)cc1)C(N)=O)[C@@H](C)O)C(C)C)[C@@H](C)O
notes: extended by one residue at the N-terminus; also called compound 47
B2: N^-1-[(4S)-4-carboxy-4-(19-carboxynonadecanoylamino)butanoyl]-Gly[Arg1,Arg17,Pro21,Pro27]-h-amylin (peptide)
peptide: {C20 diacid-γGlu}-GRCNTATCATQRLANFLRHSSPNFGAIPSSTNVGSNTY-NH2
modifications: disulfide 3-8
SMILES: CC[C@H](C)[C@H](NC(=O)[C@H](C)NC(=O)CNC(=O)[C@H](Cc1ccccc1)NC(=O)[C@H](CC(N)=O)NC(=O)[C@@H]1CCCN1C(=O)[C@H](CO)NC(=O)[C@H](CO)NC(=O)[C@H](Cc1c[nH]cn1)NC(=O)[C@H](CCCNC(=N)N)NC(=O)[C@H](CC(C)C)NC(=O)[C@H](Cc1ccccc1)NC(=O)[C@H](CC(N)=O)NC(=O)[C@H](C)NC(=O)[C@H](CC(C)C)NC(=O)[C@H](CCCNC(=N)N)NC(=O)[C@H](CCC(N)=O)NC(=O)[C@@H](NC(=O)[C@H](C)NC(=O)[C@@H]1CSSC[C@H](NC(=O)[C@H](CCCNC(=N)N)NC(=O)CNC(=O)CC[C@H](NC(=O)CCCCCCCCCCCCCCCCCCC(=O)O)C(=O)O)C(=O)N[C@@H](CC(N)=O)C(=O)N[C@@H]([C@@H](C)O)C(=O)N[C@@H](C)C(=O)N[C@@H]([C@@H](C)O)C(=O)N1)[C@@H](C)O)C(=O)N1CCC[C@H]1C(=O)N[C@@H](CO)C(=O)N[C@@H](CO)C(=O)N[C@H](C(=O)N[C@@H](CC(N)=O)C(=O)N[C@H](C(=O)NCC(=O)N[C@@H](CO)C(=O)N[C@@H](CC(N)=O)C(=O)N[C@H](C(=O)N[C@@H](Cc1ccc(O)cc1)C(N)=O)[C@@H](C)O)C(C)C)[C@@H](C)O
notes: extended by one residue at the N-terminus; also called compound 46
B3: N^ε1-[2-[2-[2-[[(4S)-4-carboxy-4-(19-carboxynonadecanoylamino)butanoyl]amino]ethoxy]ethoxy]acetyl]-[His14,Arg17,Pro21,Pro27]-h-amylin (peptide)
peptide: K([AEEA-γGlu-C20 diacid])CNTATCATQRLAHFLRHSSPNFGAIPSSTNVGSNTY-NH2
modifications: disulfide 2-7; N-terminus assumed
SMILES: CC[C@H](C)[C@H](NC(=O)[C@H](C)NC(=O)CNC(=O)[C@H](Cc1ccccc1)NC(=O)[C@H](CC(N)=O)NC(=O)[C@@H]1CCCN1C(=O)[C@H](CO)NC(=O)[C@H](CO)NC(=O)[C@H](Cc1c[nH]cn1)NC(=O)[C@H](CCCNC(=N)N)NC(=O)[C@H](CC(C)C)NC(=O)[C@H](Cc1ccccc1)NC(=O)[C@H](Cc1c[nH]cn1)NC(=O)[C@H](C)NC(=O)[C@H](CC(C)C)NC(=O)[C@H](CCCNC(=N)N)NC(=O)[C@H](CCC(N)=O)NC(=O)[C@@H](NC(=O)[C@H](C)NC(=O)[C@@H]1CSSC[C@H](NC(=O)[C@@H](N)CCCCNC(=O)COCCOCCNC(=O)CC[C@H](NC(=O)CCCCCCCCCCCCCCCCCCC(=O)O)C(=O)O)C(=O)N[C@@H](CC(N)=O)C(=O)N[C@@H]([C@@H](C)O)C(=O)N[C@@H](C)C(=O)N[C@@H]([C@@H](C)O)C(=O)N1)[C@@H](C)O)C(=O)N1CCC[C@H]1C(=O)N[C@@H](CO)C(=O)N[C@@H](CO)C(=O)N[C@H](C(=O)N[C@@H](CC(N)=O)C(=O)N[C@H](C(=O)NCC(=O)N[C@@H](CO)C(=O)N[C@@H](CC(N)=O)C(=O)N[C@H](C(=O)N[C@@H](Cc1ccc(O)cc1)C(N)=O)[C@@H](C)O)C(C)C)[C@@H](C)O
notes: also called compound 69
B4: N^ε1-[2-[2-[2-(19-carboxynonadecanoylamino)ethoxy]ethoxy]acetyl]-[Arg17,Pro21,Pro27,His34]-h-amylin (peptide)
peptide: K([AEEA-C20 diacid])CNTATCATQRLANFLRHSSPNFGAIPSSTNVGHNTY-NH2
modifications: disulfide 2-7; N-terminus assumed
SMILES: CC[C@H](C)[C@H](NC(=O)[C@H](C)NC(=O)CNC(=O)[C@H](Cc1ccccc1)NC(=O)[C@H](CC(N)=O)NC(=O)[C@@H]1CCCN1C(=O)[C@H](CO)NC(=O)[C@H](CO)NC(=O)[C@H](Cc1c[nH]cn1)NC(=O)[C@H](CCCNC(=N)N)NC(=O)[C@H](CC(C)C)NC(=O)[C@H](Cc1ccccc1)NC(=O)[C@H](CC(N)=O)NC(=O)[C@H](C)NC(=O)[C@H](CC(C)C)NC(=O)[C@H](CCCNC(=N)N)NC(=O)[C@H](CCC(N)=O)NC(=O)[C@@H](NC(=O)[C@H](C)NC(=O)[C@@H]1CSSC[C@H](NC(=O)[C@@H](N)CCCCNC(=O)COCCOCCNC(=O)CCCCCCCCCCCCCCCCCCC(=O)O)C(=O)N[C@@H](CC(N)=O)C(=O)N[C@@H]([C@@H](C)O)C(=O)N[C@@H](C)C(=O)N[C@@H]([C@@H](C)O)C(=O)N1)[C@@H](C)O)C(=O)N1CCC[C@H]1C(=O)N[C@@H](CO)C(=O)N[C@@H](CO)C(=O)N[C@H](C(=O)N[C@@H](CC(N)=O)C(=O)N[C@H](C(=O)NCC(=O)N[C@@H](Cc1c[nH]cn1)C(=O)N[C@@H](CC(N)=O)C(=O)N[C@H](C(=O)N[C@@H](Cc1ccc(O)cc1)C(N)=O)[C@@H](C)O)C(C)C)[C@@H](C)O
notes: also called compound 91
B5: N^ε-[2-[2-[2-[[(4S)-4-carboxy-4-(19-carboxynonadecanoylamino)butanoyl]amino]ethoxy]ethoxy]acetyl]Lys[Arg1,Arg17,Pro21,Pro27,His35]-h-amylin (peptide)
peptide: K([AEEA-γGlu-C20 diacid])RCNTATCATQRLANFLRHSSPNFGAIPSSTNVGSHTY-NH2
modifications: disulfide 3-8; N-terminus assumed
SMILES: CC[C@H](C)[C@H](NC(=O)[C@H](C)NC(=O)CNC(=O)[C@H](Cc1ccccc1)NC(=O)[C@H](CC(N)=O)NC(=O)[C@@H]1CCCN1C(=O)[C@H](CO)NC(=O)[C@H](CO)NC(=O)[C@H](Cc1c[nH]cn1)NC(=O)[C@H](CCCNC(=N)N)NC(=O)[C@H](CC(C)C)NC(=O)[C@H](Cc1ccccc1)NC(=O)[C@H](CC(N)=O)NC(=O)[C@H](C)NC(=O)[C@H](CC(C)C)NC(=O)[C@H](CCCNC(=N)N)NC(=O)[C@H](CCC(N)=O)NC(=O)[C@@H](NC(=O)[C@H](C)NC(=O)[C@@H]1CSSC[C@H](NC(=O)[C@H](CCCNC(=N)N)NC(=O)[C@@H](N)CCCCNC(=O)COCCOCCNC(=O)CC[C@H](NC(=O)CCCCCCCCCCCCCCCCCCC(=O)O)C(=O)O)C(=O)N[C@@H](CC(N)=O)C(=O)N[C@@H]([C@@H](C)O)C(=O)N[C@@H](C)C(=O)N[C@@H]([C@@H](C)O)C(=O)N1)[C@@H](C)O)C(=O)N1CCC[C@H]1C(=O)N[C@@H](CO)C(=O)N[C@@H](CO)C(=O)N[C@H](C(=O)N[C@@H](CC(N)=O)C(=O)N[C@H](C(=O)NCC(=O)N[C@@H](CO)C(=O)N[C@@H](Cc1c[nH]cn1)C(=O)N[C@H](C(=O)N[C@@H](Cc1ccc(O)cc1)C(N)=O)[C@@H](C)O)C(C)C)[C@@H](C)O
notes: extended by one residue at the N-terminus; also called compound 45

Columns and labels:
[1] = target: T1, human calcitonin receptor (human, UniProt P30988 25-474); test: SPA competition binding, membranes with human calcitonin receptor, displacement of 125I-calcitonin (Assay VII)
T1 construct: whole, on cells; also called hCTR; hCT
T1 sequence (looked up): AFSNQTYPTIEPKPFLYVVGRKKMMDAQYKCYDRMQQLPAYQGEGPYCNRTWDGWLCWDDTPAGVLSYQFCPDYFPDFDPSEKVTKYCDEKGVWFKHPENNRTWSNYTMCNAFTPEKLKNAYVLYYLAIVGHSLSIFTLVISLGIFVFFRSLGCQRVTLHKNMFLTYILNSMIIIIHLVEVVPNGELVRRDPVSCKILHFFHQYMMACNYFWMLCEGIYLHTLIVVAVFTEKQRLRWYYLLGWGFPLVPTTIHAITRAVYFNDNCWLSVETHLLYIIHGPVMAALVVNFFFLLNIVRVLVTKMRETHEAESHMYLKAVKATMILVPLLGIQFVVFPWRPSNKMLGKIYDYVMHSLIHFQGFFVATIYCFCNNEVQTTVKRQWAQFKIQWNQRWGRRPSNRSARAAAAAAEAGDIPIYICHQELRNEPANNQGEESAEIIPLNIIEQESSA
Outline: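 BHK hCTR membranes 35 ng/μL + SPA beads 0.05 mg/well; buffer 50 mM Hepes pH 7.4, 1 mM CaCl2, 5 mM MgCl₂, 0.1% OA, 0.02% Tween20. 120 min, 25° C., shaking. Scintillation count; IC50 by one-site binding competition.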

[2] = target: T1, human calcitonin receptor; test: ratio of IC50 at hCTR to IC50 at the human amylin receptor (reference)
Outline: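 Membranes (35 ng/μL final) + SPA beads, 50 mM Hepes pH 7.4 buffer with 1 mM CaCl2, 5 mM MgCl₂, 0.1% OA, 0.02% Tween20; 120 min, 25° C, shaking; centrifuged, counted; IC₅₀ by one-site binding competition.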

[3] = target: T2, human calcitonin receptor (human, UniProt P30988 25-474); test: cell-based or functional assay
T2 sequence (looked up): T1 sequence (looked up)

[4] = target: T3, human amylin receptor (amylin 3(a) receptor: human calcitonin receptor co-expressed with RAMP-3) (human, UniProt P30988 25-474; O60896 24-148, limits assumed); test: cell-based or functional assay
T3 sequence (looked up) 1: T1 sequence (looked up)
T3 sequence (looked up) 2: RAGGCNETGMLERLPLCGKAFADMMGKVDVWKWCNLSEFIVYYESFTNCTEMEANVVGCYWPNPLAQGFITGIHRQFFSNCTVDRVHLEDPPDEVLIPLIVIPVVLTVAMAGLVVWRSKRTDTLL

Binder	IC50 [1] [nM]	Ratio hCT/hAmylin binding [2]	hCTR funct. EC50 [3] [pM]	hAmylin-R funct. EC50 [4] [pM]	Ratio hCT/hAmylin funct. [4]
B1	15.5	44.9			
B2	9.53	48.9			
B3			1250	94	
B4			1480	40	36.9
B5	14.8	26.8			
